Experimental data taken from publication PMC8655018 (Nature Communications, 2021).

How the values were obtained:
[1] = biological target: β-barrel assembly machinery (BAM), five components BamA-E, inserted in nanodiscs (E. coli, UniProt P0A940 21-810; P77774 20-392; P0A903 25-344; P0AC02 20-245; P0A937 20-113); experiment: cryo-EM structure; MBP-EspP (3.6 μM, from urea) folded in vitro overnight into BAM nanodiscs (1.8 μM) with SurA (25.2 μM) in 1x TBS with 1 M urea, then SEC (Superdex 200 Increase); 7.0 Å map; details: both partners purified
[2] = biological target: BamA (subunit of E. coli BAM) (E. coli, UniProt P0A940 21-810); experiment: as above; details: both partners purified

B1: MBP-EspP (residues 748–1300 of EspP) with an N-terminal 6xHis tag (domain or fragment)
chain: SGMFSTSDISISGNLSMTGNPDKDNKFEPSIYLNDASYLLTDDSARLVAKNKASVVGDIHSTKSASIMFGHDESDLSQLSDRTSKGLALGLLGGFDVSYRGSVNAPSASATMNNTWWQLTGDSALKTLKSTNSMVYFTDSANNKKFHTLTVDELATSNSAYAMRTNLSESDKLEVKKHLSGENNILLVDFLQKPTPEKQLNIELVSAPKDTNENVFKASKQTIGFSDVTPVITTRETDDKITWSLTGYNTVANKEATRNAAALFSVDYKAFLNEVNNLNKRMGDLRDINGEAGAWARIMSGTGSASGGFSDNYTHVQVGVDKKHELDGLDLFTGFTVTHTDSSASADVFSGKTKSVGAGLYASAMFDSGAYIDLIGKYVHHDNEYTATFAGLGTRDYSTHSWYAGAEAGYRYHVTEDAWIEPQAELVYGSVSGKQFAWKDQGMHLSMKDKDYNPLIGRTGVDVGKSFSGKDWKVTARAGLGYQFDLLANGETVLRDASGEKRIKGEKDSRMLMSVGLNAEIRDNVRFGLEFEKSAFGKYNVDNAVNANFRYSF
notes: also called MBP-EspP substrate
Does B1 bind [1]?
Result: binds

Does B1 bind [2]?
Result: binds
